Key:
myoglobin (Mb) [1] = target: T1, myoglobin (Mb) (UniProt P02144 2-154); experiment: dot blot (aptamer blotting); folded in 10 mM K acetate pH 5.0; higher signal than N2 at low Mb; dot blot: 10 mM sodium phosphate pH 7.0, 10 mM KCl, 0.05% Tween-20, 100 nM oligonucleotide, 25 C, 1 h (block 2% BSA); ELONA: 500 nM aptamer, 25 C, 1 h, TBS-T wash; details: protein: commercial; label: 3'-biotinylated oligonucleotide mixed; parallel G4 at pH 7.0 with 10 mM Na+ and 10 mM K+
T1 sequence: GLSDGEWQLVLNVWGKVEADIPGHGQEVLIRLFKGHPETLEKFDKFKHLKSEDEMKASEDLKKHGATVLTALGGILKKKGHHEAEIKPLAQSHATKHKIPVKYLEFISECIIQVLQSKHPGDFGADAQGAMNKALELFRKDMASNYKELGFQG

myoglobin (Mb) [2] = target: T1, myoglobin (Mb); experiment: dot blot (aptamer blotting); folded in 10 mM K acetate pH 5.0; dot blot: 10 mM sodium phosphate pH 7.0, 10 mM KCl, 0.05% Tween-20, 100 nM oligonucleotide, 25 C, 1 h (block 2% BSA); ELONA: 500 nM aptamer, 25 C, 1 h, TBS-T wash; details: protein: commercial; label: 3'-biotinylated oligonucleotide mixed; mixed or hybrid (3+1) G4 at pH 5.0

Binder	binding result (myoglobin (Mb) [1])	binding result (myoglobin (Mb) [2])
GGGCGGGTTGGGCTGGGTTTGGGGCTGCTCGGGATTGCGGATATGG (structured_DNA) [PEA3-01–RBD-46]	binds	
GGGGCTGCTCGGGATTGCGGATATGGTTTGGGCGGGTTGGGCTGGG (structured_DNA) [RBD-46–PEA3-01]		binds

Source: publication PMC11578312, “Proximity‐Unlocked Luminescence by Sequential Enzymatic Reactions from Antibody and Antibody/Aptamer (PULSERAA): A Platform for Detection and Visualization of Virus‐Containing Spots”
